The source of these data is paper PMC3020112 (The EMBO Journal, 2010).

Several values for one entry are separate records, joined by “and”; a condition that tells them apart may be missing. Equal values may be shown once. Read-outs that look alike come from different tables or passages of the source.

Sequences and labels used below:
T1: SlmA (Escherichia coli, UniProt P0C093 1-198)
T1 sequence: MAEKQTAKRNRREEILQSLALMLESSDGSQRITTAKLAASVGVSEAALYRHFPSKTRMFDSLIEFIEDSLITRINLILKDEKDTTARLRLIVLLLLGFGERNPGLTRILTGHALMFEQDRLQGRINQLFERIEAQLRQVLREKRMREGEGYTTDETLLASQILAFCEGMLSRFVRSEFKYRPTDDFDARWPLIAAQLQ

T2: SlmA (synthetic lethal with a defective Min system) (E. coli), P0C093
T2 chain: T1 sequence

B1: randomized DNA 1 (dsDNA)
DNA 1: AGTCTATAGACT
DNA 2: AGTCTATAGACT
B2: randomized DNA 2 (dsDNA)
DNA 1: CCTCAGCTGAGG
DNA 2: CCTCAGCTGAGG
B3: SlmA (synthetic lethal with a defective Min system) (natural protein)
chain: T1 sequence
B4: C-terminal truncated FtsZ, FtsZ(1–360), P0A9A6 1-360 (domain or fragment)
chain: MFEPMELTNDAVIKVIGVGGGGGNAVEHMVRERIEGVEFFAVNTDAQALRKTAVGQTIQIGSGITKGLGAGANPEVGRNAADEDRDALRAALEGADMVFIAAGMGGGTGTGAAPVVAEVAKDLGILTVAVVTKPFNFEGKKRMAFAEQGITELSKHVDSLITIPNDKLLKVLGRGISLLDAFGAANDVLKGAVQGIAELITRPGLMNVDFADVRTVMSEMGYAMMGSGVASGEDRAEEAAEMAISSPLLEDIDLSGARGVLVNITAGFDLRLDEFETVGNTIRAFASDNATVVIGTSLDPDMNDELRVTVVATGIGMDKRPEITLVTNKQVQQPVMDRYQQHGMAPLTQEQKPVAKVVND
B5: FtsZ, full length (E. coli) (natural protein)
chain: MFEPMELTNDAVIKVIGVGGGGGNAVEHMVRERIEGVEFFAVNTDAQALRKTAVGQTIQIGSGITKGLGAGANPEVGRNAADEDRDALRAALEGADMVFIAAGMGGGTGTGAAPVVAEVAKDLGILTVAVVTKPFNFEGKKRMAFAEQGITELSKHVDSLITIPNDKLLKVLGRGISLLDAFGAANDVLKGAVQGIAELITRPGLMNVDFADVRTVMSEMGYAMMGSGVASGEDRAEEAAEMAISSPLLEDIDLSGARGVLVNITAGFDLRLDEFETVGNTIRAFASDNATVVIGTSLDPDMNDELRVTVVATGIGMDKRPEITLVTNKQVQQPVMDRYQQHGMAPLTQEQKPVAKVVNDNAPQTAKEPDYLDIPAFLRKQAD
B6: SBS position 3 G to A (symmetric double mutant) (dsDNA)
DNA 1: GTAAGTACTTAC
DNA 2: GTAAGTACTTAC

One series addresses T1, SlmA. The series can be described thus: fluorescence polarization.
Series [1] has as its target B5. The series can be described thus: fluorescence polarisation.
The series “SEC” concerns the molecule itself. Nature of the series: SEC.
In series [2] the target is B5. The series can be described thus: fluorescence polarisation. The source holds these as a separate data set.
In series [3] the target is T2, SlmA (synthetic lethal with a defective …). Nature of the series: fluorescence polarisation. Conditions: remark: other sources report otherwise.
For series [4], the target named is B3. Nature of the series: SAXS.
The series “SAXS” concerns the molecule itself. Nature of the series: SAXS.

In the case of B1, the binding result with SlmA is “no binding”. Same read-out and setting: with B2 the entry was “no binding”. As to B3, the Kd in series [1] was 142 nM and 130 nM and 205 nM; in series [2], 119 ± 11 nM. Further, in the series “SEC”, the “stoichiometry N” value was 2. In turn, B4 gave a Kd in series [3] of 148 nM. Take B5: the “stoichiometry N” value in series [4] was 1 SlmA:FtsZ. Moreover, in the series “SAXS”, the binding result is “binds”. For the molecule B6, the Kd with SlmA is roughly 60 nM.
